From patent US20250277045A1 (KEYMED BIOSCIENCES, published 2025)
Numbering of substitutions follows the chain as printed.

T1: human BCMA on cells (CHO-hBCMA clone 2C2; NCI-H929; RPMI-8226) (human, UniProt Q02223 1-184)
T1 sequence (looked up): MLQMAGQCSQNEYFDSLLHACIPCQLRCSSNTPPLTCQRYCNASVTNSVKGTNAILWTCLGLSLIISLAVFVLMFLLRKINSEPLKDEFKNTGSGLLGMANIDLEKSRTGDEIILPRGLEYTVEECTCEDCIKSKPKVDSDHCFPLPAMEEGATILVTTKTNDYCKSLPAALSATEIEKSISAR

B1: h38E2-CD3 (bispecific antibody, V domains shown)
VH 1: QVQLVQSGAEVKKPGSSVKVSCKASGYTFTNYWIGWVREAPGQGLEWMGDIYPGSGDTNYNGKFQGRVTLTADISSNTAYMELSSLRSEDTAVYYCARSYYRNDAASFAYWGQGTLVTVSS
VL 1: DIQMTQSPSSLSASVGDRVTITCQASQDVDTAVAWYQKKPGKAPKLLIYWTSTRHTGVPSRFSGSGSGTDFTFTISSLQPEDIATYFCQQFSSYPLTFGQGTKVEIK
VH 2: EVQLVESGGGLVQPGGSLRLSCAASGFTFNTYAMNWVRKAPGKGLEWVGRIRSKYNNYATYYADSVKDRFTISRDDSKNSLYLQMNSLKTEDTAVYYCVRHGNFGNSYVSWFAYWGQGTLVTVSS
VL 2: QAVVTQEPSLTVSPGGTVTLTCRSSTGAVTTSNYANWVQEKPGQAPRGLIGGTNKRAPWTPARFSGSLLGGKAALTITGAQAEDEAEYYCVLWYSNLWVFGGGTKLTVL
B2: h23F8-CD3 (bispecific antibody, V domains shown)
VH 1: QVQLVQSGSELKKPGASVKVSCKASGYTFTNFGMNWVREAPGQGLEWMGWINTYTGDQIYADDFKGRFAFSLDTSASTAYLQISSLKAEDTAVYFCARGEIYYGYDVGFVYWGQGTLVTVSS
VL 1: DIVLTQSPASLAVSPGQRATITCRASKSVSTSGYSYMHWYQKKPGQPPKLLIYLASNLESGVPARFSGSGSGTDFTLTINPVEANDTANYYCQHSRELPWTFGQGTKVEIK
VH 2: B1 VH 2
VL 2: B1 VL 2
B3: h40C6-CD3 (bispecific antibody, V domains shown)
VH 1: B2 VH 1 with T28I, D57E
VL 1: B2 VL 1 with K27R, S30T, M37I, N57D, S60A
VH 2: B1 VH 2
VL 2: B1 VL 2
B4: 23G9 Fab (Fab, V domains shown)
VH: EVQLQQSGTVLTRPGASVKLSCKASGYSFSSYWMHWLKQRPGQGLEWIGAIYPGNSRTTYNQKFKGEAKLTADTSASTAYMDLSSLTNADSAVYFCTREETYWGQGTLVTVSA
VL: DVVMTQTPLSLSVTIGQPASISCKSSQGLLDSYGVTYLNWLFQRPGQPPKRLIYLVSELDSGVPDRFTGSGSGTDFTLRISRVEAEDLGIYYCWQGSHFPLTFGAGTKLELK
notes: Murine BCMA Fab, Ni-NTA purified
B5: 29A11 Fab (Fab, V domains shown)
VH: EIQLVQSGPELKKPGETVKISCKASGYIFTNFGMNWVRQAPGKALKWMGWINTYTGEQIYADDFKGRFAFSLETSASTAYLQINNLKNEDTATYFCARGEIYYGYDVGFVYWGQGTLVTVSA
VL: DIVLTQSPASLAVSLGQRATISCRASKSVSTSGYSYMHWYQQKPGQPPKLLIYLASNLESGVPARFSGSGSGTDFTLNIHPVEEEDAATYYCQHSRELPWTFGGGTKLEIK
notes: as for B4
B6: 38F9 Fab (Fab, V domains shown)
VH: B5 VH
VL: NIVLTQSPASLAVSLGQRATISCRASESVDSSGNSFMHWYQQKPGQPPKLLIYLESNLESGVPARFSGSGSRTDFTLTIEPVEADDAATYYCQQSNEDPWTFGGGTKLEIK
notes: as for B4
B7: 6G5 Fab (Fab, V domains shown)
VH: B5 VH
VL: B5 VL with V13I, S30T, M37I, N57D, S60A, I110L
notes: as for B4
B8: 16B9 Fab (Fab, V domains shown)
VH: B5 VH with A40T, Q58T, R67L, T74V, S75P, Y105F, V110A
VL: B5 VL with A12T, M37I, N57D, I110L
notes: as for B4
B9: 23F8 Fab (Fab, V domains shown)
VH: B5 VH with K23T, I28T, K46R, E57D
VL: B5 VL
notes: as for B4
B10: 3G11 Fab (Fab, V domains shown)
VH: B5 VH
VL: B5 VL with A12T, N57D, P63S
notes: Murine BCMA Fab from phage library, expressed in TG1 periplasm, purified by Ni-NTA
B11: 40C6 Fab (Fab, V domains shown)
VH: B5 VH
VL: B5 VL with V13I, K27R, S30T, M37I, N57D, S60A
notes: as for B4
B12: 34G2 Fab (Fab, V domains shown)
VH: B5 VH with I2V, V5Q, K12R, I28T, F32Y, R38K, A40T, A44G, Q58R
VL: B5 VL with A12V, K107R
notes: as for B4
B13: 38D9 Fab (Fab, V domains shown)
VH: B5 VH with I2V, V5Q
VL: B5 VL with A12T, R24G, A55G, N57D
notes: as for B4
B14: 15H10 Fab (Fab, V domains shown)
VH: B5 VH with I2V, V5Q, I28T, A40T, E57D, Q58L, A61G, V110A
VL: B5 VL
notes: as for B4
B15: 15G9 Fab (Fab, V domains shown)
VH: QVQLQQSGPELVKPGASVNLSCKASGYTFTNYVIHWVKQKPGQGLEWIGYTIPYTDVTKYNEKFKAKATLTSDKSSSTAFMELSSLTSEDSAVYYCARYDFDGYFDYWGQGTTLTVSS
VL: DIVMTQAAFSNPVTLGTSASISCRSSKSLLHSNGITYLYWYLQKPGQSPQLLIYQMSNLASGVPDRFSSSGSGTDFTLRISRVEAEDVGVYYCAQNLELPWTFGGGTKLELK
notes: as for B4
B16: 38E2 Fab (Fab, V domains shown)
VH: QVQLQQSGAELVRPGTSVKMSCKAAGYTFTNYWIGWVKQRPGHGLEWIGDIYPGSGDTNYNGKFKGKATLAADISSNAAYMQLSSLTSEDSAIYYCARSYYRNDAASFAYWGQGTLVTVSA
VL: DIVMTQSHKFMSTSVGDRVNITCKASQDVDTAVAWYQQKPSQSPKLLIYWTSTRHTGVPDRFTGSGSGTDFTLTISNVQSEDLADYFCQQFSSYPLTFGAGTKLELK
notes: as for B4

What follows are binders tested against T1, human BCMA on cells (CHO-hBCMA clone …) (assay: cell-based or functional assay).
For Upregulation of CD25 (%), CD4+T in this document: test concentration or dose not given here.
For Upregulation of CD25 (%), CD8+T in this document: test concentration or dose not given here.
For Upregulation of CD69 (%), CD4+T in this document: test concentration or dose not given here.
For Upregulation of CD69 (%), CD8+T in this document: test concentration or dose not given here.

Question: Which “Killing EC50 (TDCC, LDH release; PBMC + RPMI-8226)” value (shortened to “Killing EC50”) does the source give for B1 here?
Answer: 13.6 nM

Question: With B2 as the binder, how does the “Killing EC50” value read?
Answer: 0.81 nM

Question: How did the “Killing EC50” value turn out when B3 was run?
Answer: 1.12 nM

The binders below were run against human CD3 on T cells (Jurkat cells; human peripheral blood CD4+ and CD8+ T cells) (human, UniProt P07766 23-207) (assay: cell-based or functional assay).
human CD3 on T cells (Jurkat cells; human peripheral blood CD4+ and CD8+ T cells), sequence (P07766 23-207): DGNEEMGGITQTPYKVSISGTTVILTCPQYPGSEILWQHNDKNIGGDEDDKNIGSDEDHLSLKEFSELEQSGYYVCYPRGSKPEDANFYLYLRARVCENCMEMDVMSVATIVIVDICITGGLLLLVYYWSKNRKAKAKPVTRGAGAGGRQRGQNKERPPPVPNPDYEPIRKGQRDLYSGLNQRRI

Question: Which “Upregulation of CD25 (%), CD4+T” value does the source give for B1 here?
Answer: 29%

Question: And the “Upregulation of CD25 (%), CD8+T” value?
Answer: 38%

Question: What about the “Upregulation of CD25 EC50, CD4+T” value of the same binder?
Answer: 3.65 nM

Question: And the “Upregulation of CD25 EC50, CD8+T” value?
Answer: 3.65 nM

Question: And the “Upregulation of CD69 (%), CD4+T” value?
Answer: 55%

Question: What about the “Upregulation of CD69 (%), CD8+T” value of the same binder?
Answer: 69%

Question: And the “Upregulation of CD69 EC50, CD4+T” value?
Answer: 7.4 nM

Question: What about the “Upregulation of CD69 EC50, CD8+T” value of the same binder?
Answer: 2.32 nM

Question: B2 was tested. Which “Upregulation of CD25 (%), CD4+T” value did it give?
Answer: 25%

Question: And the “Upregulation of CD25 (%), CD8+T” value?
Answer: 34%

Question: And the “Upregulation of CD25 EC50, CD4+T” value?
Answer: 0.57 nM

Question: What about the “Upregulation of CD25 EC50, CD8+T” value of the same binder?
Answer: 0.79 nM

Question: And the “Upregulation of CD69 (%), CD4+T” value?
Answer: 41%

Question: And the “Upregulation of CD69 (%), CD8+T” value?
Answer: 59%

Question: What about the “Upregulation of CD69 EC50, CD4+T” value of the same binder?
Answer: 0.44 nM

Question: What about the “Upregulation of CD69 EC50, CD8+T” value of the same binder?
Answer: 0.49 nM

Question: What does the source list for B3?
Answer: Upregulation of CD25 (%), CD4+T: 25%; Upregulation of CD25 (%), CD8+T: 28%; Upregulation of CD25 EC50, CD4+T: 0.45 nM; Upregulation of CD25 EC50, CD8+T: 0.49 nM; Upregulation of CD69 (%), CD4+T: 37%; Upregulation of CD69 (%), CD8+T: 44%; Upregulation of CD69 EC50, CD4+T: 0.63 nM; Upregulation of CD69 EC50, CD8+T: 0.21 nM

Each binder was assayed against T2, human BCMA-hFc kih monovalent recombinant protein (human, UniProt P0DOX5 223-449 = IgG part) (assay: SPR (Biacore T200), BCMA-hFc captured on Protein A chip, Fab as analyte, 1:1 Langmuir).
T2 construct: Knob-into-hole heterodimer with one BCMA arm, expressed in HEK293E; also called human BCMA-hFc recombinant protein
Source text: Kinetic constants were fitted using Biacore T200 evaluation software with a Langmuir 1:1 kinetics model.

Question: Which results are given for B4?
Answer: Kd: 76.9 nM; koff: 0.000313 s⁻¹; kon: 4070 M⁻¹ s⁻¹

Question: What does the source list for B5?
Answer: Kd: 3.2 nM; koff: 0.000243 s⁻¹; kon: 76400 M⁻¹ s⁻¹

Question: For B6, which Kd is on record?
Answer: 344 nM

Question: And the koff?
Answer: 0.002 s⁻¹

Question: What about the kon of the same binder?
Answer: 5810 M⁻¹ s⁻¹

Question: With B7 as the binder, how does the Kd read?
Answer: 2.1 nM

Question: And the koff?
Answer: 6.13e-05 s⁻¹

Question: What about the kon of the same binder?
Answer: 29400 M⁻¹ s⁻¹

Question: What does the source list for B8?
Answer: Kd: 4.1 nM; koff: 0.000476 s⁻¹; kon: 117000 M⁻¹ s⁻¹

Question: B9 was tested. Which Kd did it give?
Answer: 5.6 nM

Question: What about the koff of the same binder?
Answer: 0.000322 s⁻¹

Question: And the kon?
Answer: 57700 M⁻¹ s⁻¹

Question: B10 was tested. Which Kd did it give?
Answer: 13 nM

Question: And the koff?
Answer: 0.000432 s⁻¹

Question: And the kon?
Answer: 33300 M⁻¹ s⁻¹

Question: B11 was tested. Which Kd did it give?
Answer: 6.4 nM

Question: What about the koff of the same binder?
Answer: 0.000271 s⁻¹

Question: And the kon?
Answer: 42100 M⁻¹ s⁻¹

Question: B12 was tested. Which Kd did it give?
Answer: 5 nM

Question: And the koff?
Answer: 0.000705 s⁻¹

Question: What about the kon of the same binder?
Answer: 142000 M⁻¹ s⁻¹

Question: What does the source list for B13?
Answer: Kd: 5.6 nM; koff: 0.000329 s⁻¹; kon: 59100 M⁻¹ s⁻¹

Question: B14 was tested. Which Kd did it give?
Answer: 18.3 nM

Question: What about the koff of the same binder?
Answer: 0.00069 s⁻¹

Question: And the kon?
Answer: 37800 M⁻¹ s⁻¹

Question: For B15, which Kd is on record?
Answer: 12.2 nM

Question: What about the koff of the same binder?
Answer: 0.0126 s⁻¹

Question: And the kon?
Answer: 1.03e+06 M⁻¹ s⁻¹

Question: Which Kd does the source give for B16 here?
Answer: 8.1 nM

Question: And the koff?
Answer: 0.000798 s⁻¹

Question: And the kon?
Answer: 98800 M⁻¹ s⁻¹
